Results as given in the supplement of paper PMC9732359.
± gives the uncertainty stated by the source.

Test: protein stability index of a GFP-peptide fusion (yeast GPS) (PSI 1-4); higher = more stable; sorted into four equal gates, so the index is relative within each strain
How it was run: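 Yeast carrying a pooled library were grown to mid-log phase in leucine-free medium. Each library plasmid expresses Cherry and has a tiled 17-residue yeast protein peptide fused downstream of GFP. Cells were sorted into four equal gates by GFP/Cherry ratio, and plasmids from each gate were PCR-amplified, Illumina-sequenced and assigned to strains by barcode. Summing, across gates, the read frequency times the gate number gave each peptide's protein stability index.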

ESVELPLTHPELYEEMG [RPT2]
protein stability index (doa10∆): 2.63 ± 0.077
protein stability index (pdr5∆): 2.94 ± 0.074
protein stability index (san1∆): 2.78 ± 0.07
protein stability index (ubr1∆): 2.74 ± 0.037

ETDDNIETVMTQEQFVK [SRB4]
protein stability index (pdr5∆): 3.23 ± 0.17
protein stability index (san1∆): 2.6 ± 0.2

ETFSTSAHQSPIMQTQM [SNF2]
protein stability index (doa10∆): 3.17 ± 0.077
protein stability index (pdr5∆): 2.8 ± 0.072
protein stability index (san1∆): 3.28 ± 0.062
protein stability index (ubr1∆): 3.15 ± 0.04

ETIIFDSELNRALFETK [RRI1]
protein stability index (doa10∆): 3.03 ± 0.14
protein stability index (pdr5∆): 2.66 ± 0.14
protein stability index (san1∆): 3.2 ± 0.062
protein stability index (ubr1∆): 3.35 ± 0.17

ETISKLNEYKRETLVKT [SMC2]
protein stability index (doa10∆): 2.02 ± 0.059
protein stability index (pdr5∆): 1.99 ± 0.046
protein stability index (san1∆): 2.19 ± 0.062
protein stability index (ubr1∆): 2.57 ± 0.034

ETKTKKEKIKGLQDEIM [SMC4]
protein stability index (doa10∆): 3.12 ± 0.11
protein stability index (pdr5∆): 3.32 ± 0.13
protein stability index (san1∆): 3.13 ± 0.06
protein stability index (ubr1∆): 3.38 ± 0.068

ETKWDDADEKSSNLYET [YJR042W/NUP85]
protein stability index (pdr5∆): 3.22 ± 0.15
protein stability index (san1∆): 3.02 ± 0.13
protein stability index (ubr1∆): 3.25 ± 0.097

ETNLQTFLPPLLLKLAS [ECM29]
protein stability index (doa10∆): 1.65 ± 0.038
protein stability index (pdr5∆): 1.85 ± 0.043
protein stability index (san1∆): 1.62 ± 0.063
protein stability index (ubr1∆): 2.11 ± 0.034

ETRAELSQLCAVPLQIV [RPO21]
protein stability index (doa10∆): 1.96 ± 0.087
protein stability index (pdr5∆): 2.32 ± 0.14
protein stability index (san1∆): 2.24 ± 0.21
protein stability index (ubr1∆): 2.71 ± 0.19

ETVFNYRLMIKRLNFSF [GRR1]
protein stability index (doa10∆): 1.84 ± 0.099
protein stability index (pdr5∆): 1.3 ± 0.068
protein stability index (san1∆): 1.27 ± 0.12
protein stability index (ubr1∆): 1.31 ± 0.074

EVAKKRSRKTVKAQRPI [RPL24A]
protein stability index (doa10∆): 3.12 ± 0.097
protein stability index (pdr5∆): 3.29 ± 0.11
protein stability index (san1∆): 3.18 ± 0.15
protein stability index (ubr1∆): 3.17 ± 0.16

EVIGYIAAGTYGKVYKA [SSN3]
protein stability index (doa10∆): 2.01 ± 0.05
protein stability index (pdr5∆): 2.25 ± 0.042
protein stability index (san1∆): 2.17 ± 0.069
protein stability index (ubr1∆): 1.9 ± 0.045

EVLNRVASRHPSESEHP [YDL116W/NUP84]
protein stability index (doa10∆): 2.94 ± 0.15
protein stability index (pdr5∆): 3.17 ± 0.11
protein stability index (san1∆): 2.99 ± 0.084
protein stability index (ubr1∆): 3.24 ± 0.075

EVNISSLDAREANFDLI [RPC40]
protein stability index (doa10∆): 3.4 ± 0.11
protein stability index (pdr5∆): 3.37 ± 0.095
protein stability index (san1∆): 3.17 ± 0.095
protein stability index (ubr1∆): 3.22 ± 0.068

EVNREEAIGFIRGSNKF [SMC3]
protein stability index (doa10∆): 2.84 ± 0.21
protein stability index (pdr5∆): 2.77 ± 0.11
protein stability index (san1∆): 2.88 ± 0.14
protein stability index (ubr1∆): 2.57 ± 0.09

EVNSKKKNKRALPNIEN [BRR2]
protein stability index (doa10∆): 2.9 ± 0.14
protein stability index (pdr5∆): 3.2 ± 0.096
protein stability index (san1∆): 3.35 ± 0.088
protein stability index (ubr1∆): 3.09 ± 0.068

EVQRILIELLTQMDGFD [RPT3]
protein stability index (doa10∆): 1.36 ± 0.054
protein stability index (pdr5∆): 2.08 ± 0.081
protein stability index (san1∆): 1.41 ± 0.16
protein stability index (ubr1∆): 1.81 ± 0.069

EVRAISVAKIRFPETMD [RPO21]
protein stability index (doa10∆): 3.08 ± 0.1
protein stability index (pdr5∆): 2.87 ± 0.087
protein stability index (san1∆): 2.73 ± 0.079
protein stability index (ubr1∆): 3.28 ± 0.044

EVSALVRSLPKEEQPKQ [PRP8]
protein stability index (doa10∆): 1.23 ± 0.075
protein stability index (pdr5∆): 1.38 ± 0.082
protein stability index (san1∆): 1.26 ± 0.12
protein stability index (ubr1∆): 1.08 ± 0.051

EVTAGEAQDEASLQQQQ [SNF6]
protein stability index (doa10∆): 3.31 ± 0.17
protein stability index (san1∆): 3.29 ± 0.14
protein stability index (ubr1∆): 3.6 ± 0.27

EVVEVQEETVVEQTAEV [RPS12]
protein stability index (doa10∆): 3.15 ± 0.1
protein stability index (pdr5∆): 3.36 ± 0.11
protein stability index (san1∆): 2.97 ± 0.076
protein stability index (ubr1∆): 3.24 ± 0.097

EVYNVIASDGSYVNYRH [RPO21]
protein stability index (doa10∆): 3.41 ± 0.11
protein stability index (pdr5∆): 3.58 ± 0.085
protein stability index (san1∆): 2.88 ± 0.12
protein stability index (ubr1∆): 3.08 ± 0.091

EYALEAVKRGTCAVGVK [PRE6]
protein stability index (doa10∆): 1.93 ± 0.08
protein stability index (pdr5∆): 2.53 ± 0.094
protein stability index (san1∆): 2.21 ± 0.13
protein stability index (ubr1∆): 2.92 ± 0.084

EYINNCKKNTKKCLKLA [POP4]
protein stability index (doa10∆): 2.82 ± 0.13
protein stability index (pdr5∆): 3.1 ± 0.13
protein stability index (san1∆): 2.99 ± 0.077
protein stability index (ubr1∆): 2.78 ± 0.14

EYLKGSESQLNSTLKKV [YCS4]
protein stability index (doa10∆): 2.85 ± 0.17
protein stability index (san1∆): 2.5 ± 0.2

EYQSLMSLKDKLLIQID [SMC1]
protein stability index (doa10∆): 2.13 ± 0.077
protein stability index (pdr5∆): 2.62 ± 0.082
protein stability index (san1∆): 2.41 ± 0.2
protein stability index (ubr1∆): 2.38 ± 0.092

EYWAQRKKKFVLDVDPK [ISW2]
protein stability index (doa10∆): 3.08 ± 0.094
protein stability index (pdr5∆): 2.48 ± 0.26
protein stability index (san1∆): 3.03 ± 0.21
protein stability index (ubr1∆): 3.28 ± 0.21

FAAIPEQGIELEHIDSK [FAS2]
protein stability index (doa10∆): 3.17 ± 0.16
protein stability index (pdr5∆): 2.85 ± 0.21
protein stability index (san1∆): 3.39 ± 0.084
protein stability index (ubr1∆): 3.41 ± 0.1

FANNLKSAISNNFRESD [SIR4]
protein stability index (doa10∆): 2.55 ± 0.053
protein stability index (pdr5∆): 2.59 ± 0.048
protein stability index (san1∆): 2.56 ± 0.044
protein stability index (ubr1∆): 2.41 ± 0.042

FATNEERQMNFLTNELI [SWI3]
protein stability index (doa10∆): 3.28 ± 0.1
protein stability index (pdr5∆): 2.32 ± 0.07
protein stability index (san1∆): 1.96 ± 0.14
protein stability index (ubr1∆): 2.62 ± 0.053

FCPIVEEIVSNSSRFSD [YCS4]
protein stability index (doa10∆): 1.97 ± 0.1
protein stability index (pdr5∆): 1.35 ± 0.14
protein stability index (san1∆): 1.68 ± 0.21
protein stability index (ubr1∆): 2.35 ± 0.057

FDDNDSGNNYNDINISS [MED2]
protein stability index (doa10∆): 3.08 ± 0.037
protein stability index (pdr5∆): 3.19 ± 0.039
protein stability index (san1∆): 3.05 ± 0.038
protein stability index (ubr1∆): 3.151 ± 0.028

FDEEFDPFKTSSFNKRS [IRR1]
protein stability index (doa10∆): 2.76 ± 0.083
protein stability index (pdr5∆): 2.92 ± 0.061
protein stability index (san1∆): 2.81 ± 0.11
protein stability index (ubr1∆): 2.78 ± 0.084

FDINRSHKEGRRVPKEL [SEC65]
protein stability index (pdr5∆): 2.52 ± 0.24

FDNFLTEEELQAAVPDN [BRN1]
protein stability index (doa10∆): 2.93 ± 0.071
protein stability index (pdr5∆): 2.71 ± 0.071
protein stability index (san1∆): 2.54 ± 0.068
protein stability index (ubr1∆): 2.65 ± 0.051

FDSELIHLKQKLSESLD [SMC3]
protein stability index (pdr5∆): 2.88 ± 0.17
protein stability index (san1∆): 3.22 ± 0.13
protein stability index (ubr1∆): 3.24 ± 0.14

FDYSVILNSIPAAANLD [YJL039C/NUP192]
protein stability index (doa10∆): 1.48 ± 0.051
protein stability index (pdr5∆): 1.44 ± 0.083
protein stability index (san1∆): 1.71 ± 0.079
protein stability index (ubr1∆): 1.26 ± 0.047

FEENDHPNRVLEHLHST [COR1]
protein stability index (doa10∆): 2.96 ± 0.049
protein stability index (pdr5∆): 2.95 ± 0.052
protein stability index (san1∆): 3 ± 0.055
protein stability index (ubr1∆): 3.07 ± 0.049

FEGDSNMLICAPTGSGK [BRR2]
protein stability index (doa10∆): 1.79 ± 0.096
protein stability index (pdr5∆): 1.43 ± 0.075
protein stability index (san1∆): 1.71 ± 0.14
protein stability index (ubr1∆): 2.18 ± 0.071

FEIVDREKNSLESGKET [SMC4]
protein stability index (doa10∆): 3.31 ± 0.26
protein stability index (pdr5∆): 3.16 ± 0.18

FEKNTILQQRSKINSTE [MED4]
protein stability index (doa10∆): 2.79 ± 0.073
protein stability index (pdr5∆): 3.07 ± 0.084
protein stability index (san1∆): 2.81 ± 0.07
protein stability index (ubr1∆): 3.15 ± 0.086

FEQPSQREEAKKVVKKA [RPL27A]
protein stability index (doa10∆): 2.95 ± 0.15
protein stability index (pdr5∆): 3.28 ± 0.13
protein stability index (san1∆): 3.13 ± 0.15
protein stability index (ubr1∆): 3.05 ± 0.14

FEVLAPKWERVFLFDIE [RRI2]
protein stability index (doa10∆): 3.41 ± 0.12
protein stability index (pdr5∆): 2.72 ± 0.085
protein stability index (san1∆): 2.92 ± 0.1
protein stability index (ubr1∆): 2.52 ± 0.068

FGAKPDENKASATSKPA [YJL041W/NSP1]
protein stability index (doa10∆): 2.59 ± 0.066
protein stability index (pdr5∆): 2.87 ± 0.052
protein stability index (san1∆): 2.56 ± 0.057
protein stability index (ubr1∆): 2.74 ± 0.052

FGAKSDEKKDSDSSKPA [YJL041W/NSP1]
protein stability index (doa10∆): 3.04 ± 0.074
protein stability index (pdr5∆): 3.21 ± 0.099
protein stability index (san1∆): 3.24 ± 0.07
protein stability index (ubr1∆): 3.04 ± 0.086

FGKKRLDLAGPLLAQLF [RPB2]
protein stability index (doa10∆): 1.44 ± 0.19
protein stability index (pdr5∆): 1.79 ± 0.16
protein stability index (san1∆): 1.42 ± 0.15
protein stability index (ubr1∆): 1.4 ± 0.18

FGKTTANLPANSSTSPA [YLR335W/NUP2]
protein stability index (doa10∆): 3.01 ± 0.047
protein stability index (pdr5∆): 3.14 ± 0.058
protein stability index (san1∆): 2.96 ± 0.045
protein stability index (ubr1∆): 3.12 ± 0.035

FGNKPAGSTGFSFGQNN [YGR119C/NUP57]
protein stability index (doa10∆): 1.75 ± 0.089
protein stability index (pdr5∆): 1.77 ± 0.085
protein stability index (san1∆): 1.46 ± 0.15
protein stability index (ubr1∆): 1.29 ± 0.28

FGPKKENRKKDESDSEN [YLR335W/NUP2]
protein stability index (doa10∆): 3.04 ± 0.14
protein stability index (pdr5∆): 3.19 ± 0.086
protein stability index (san1∆): 2.62 ± 0.079
protein stability index (ubr1∆): 3.42 ± 0.091

FGQKGGQAIVVHPDYLY [FAS2]
protein stability index (doa10∆): 1.86 ± 0.046
protein stability index (pdr5∆): 1.62 ± 0.04
protein stability index (san1∆): 1.99 ± 0.06
protein stability index (ubr1∆): 1.68 ± 0.049

FGSGTQNNNTLGGGGLF [YGR119C/NUP57]
protein stability index (doa10∆): 3.37 ± 0.083
protein stability index (pdr5∆): 2.94 ± 0.089
protein stability index (san1∆): 3.07 ± 0.061
protein stability index (ubr1∆): 3.11 ± 0.054

FGTGKRLAKKVARRNAD [RPS24A]
protein stability index (doa10∆): 3.46 ± 0.062
protein stability index (pdr5∆): 3.31 ± 0.055
protein stability index (san1∆): 3.1 ± 0.04
protein stability index (ubr1∆): 3.31 ± 0.039

FGVSFIYAGYDDRYGYQ [PRE9]
protein stability index (doa10∆): 2.33 ± 0.09
protein stability index (pdr5∆): 2.61 ± 0.097
protein stability index (san1∆): 2.04 ± 0.19
protein stability index (ubr1∆): 2.45 ± 0.11
